Source: article PMC5432575, “CRP Regulates D-Lactate Oxidation in Shewanella oneidensis MR-1”

T1: CRP (N-his-CRP) (Shewanella oneidensis MR-1) (UniProt Q8EJ49)
T1 sequence: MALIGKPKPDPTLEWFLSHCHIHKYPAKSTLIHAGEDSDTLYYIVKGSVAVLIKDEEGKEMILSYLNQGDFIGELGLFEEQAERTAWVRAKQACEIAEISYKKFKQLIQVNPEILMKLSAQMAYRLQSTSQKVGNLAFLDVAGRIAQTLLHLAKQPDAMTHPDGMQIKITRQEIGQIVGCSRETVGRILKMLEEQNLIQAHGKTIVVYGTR


Assays:
[1] = molecular target: T1, CRP (N-his-CRP) (Shewanella oneidensis MR-1); experiment: EMSA; conditions: 20 ul: 2 nM Cy3-labeled probe, 50 ng N-his-CRP, 50 uM cAMP, buffer as in Kasai et al. 2015 (salt, pH, temperature not given)
CRP (N-his-CRP) = CRP (N-his-CRP) (Shewanella oneidensis MR-1, UniProt Q8EJ49 1-211); experiment: EMSA; 50 uM cAMP; EMSA, 20 ul: 2 nM Cy3-labeled probe, 50 ng N-his-CRP, 50 uM cAMP; buffer as in Kasai et al. 2015 (salt, pH, temperature not given); conditions: protein: recombinant; tags: N-terminal His tag; chain copies: 2; label: 5'-Cy3 (forward strand); blunt

Molecule | binding [1] | binding result (CRP (N-his-CRP))
GGATCAGTTAATTGCAATACTGATAGCTAATTTAATGAAAATTTCCTTTTTTATAACTATCTGACATGTTTTTTAAAAAAATATTTGAATGGAGTTATATATACCCCACTCTTTAAGTGACA (double strand) [PBlldP1] | no binding | 
GGATCAGTTAATTGCAATACTGATAGCTAATTTAATGAAAATTTCCTTTTTTATAACTATCTGACATGTTTTTTAAAAAAATATTTGAATGGAGTTATATATACCCCACTCTTTAAGTGACACCGATCACAGTTAAGAAAATCCCATGAGAGAAGCCTCCCGCAGCACTGTAAATTAGCATT (double strand) [PBlldP2] | binds | 
PBlldP3m (dsDNA) DNA 1: ATATACCCCACTCTTTACCCCCCACCGAGGGGGGTTAAGAAAATCCCATG DNA 2: CATGGGATTTTCTTAACCCCCCTCGGTGGGGGGTAAAGAGTGGGGTATAT |  | no binding
PBlldP3 (dsDNA) DNA 1: ATATACCCCACTCTTTAAGTGACACCGATCACAGTTAAGAAAATCCCATG DNA 2: CATGGGATTTTCTTAACTGTGATCGGTGTCACTTAAAGAGTGGGGTATAT |  | binds
